{
  "source": "paper PMC9482650",
  "about": "“Quantitative fragmentomics allow affinity mapping of interactomes” (Nature Communications, 2022)",
  "assay_in_all_cases": "holdup assay",
  "parameters_in_all_cases": "key: below the threshold = too weak to quantify, mostly under pKd 3.1 to 4",
  "key": {"[1]": {"biological_target": "GORASP2, Q9H8Y8"}, "[2]": {"biological_target": "MAGI2_3, Q86UL8", "sequence (Q86UL8 600-682)": "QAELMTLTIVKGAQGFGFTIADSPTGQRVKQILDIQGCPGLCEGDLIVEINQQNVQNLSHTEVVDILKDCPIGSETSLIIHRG"}, "[3]": {"biological_target": "T1, TJP3_3, O95049", "T1 sequence (O95049 375-456, limits assumed, looked up)": "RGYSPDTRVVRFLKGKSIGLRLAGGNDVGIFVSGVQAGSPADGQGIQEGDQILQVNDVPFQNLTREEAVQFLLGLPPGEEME"}, "[4]": {"biological_target": "DLG2_2, Q15700", "sequence (Q15700 189-283)": "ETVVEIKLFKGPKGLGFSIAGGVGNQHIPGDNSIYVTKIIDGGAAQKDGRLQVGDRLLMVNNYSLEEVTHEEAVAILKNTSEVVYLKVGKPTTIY"}, "[5]": {"biological_target": "Inadl_8, Q8NI35", "sequence (Q8NI35 1425-1530)": "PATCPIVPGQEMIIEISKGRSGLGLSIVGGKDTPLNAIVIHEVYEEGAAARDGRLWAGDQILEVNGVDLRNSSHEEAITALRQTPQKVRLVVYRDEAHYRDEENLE"}, "[6]": {"biological_target": "SCRIB_1, Q14160", "sequence (Q14160 718-814)": "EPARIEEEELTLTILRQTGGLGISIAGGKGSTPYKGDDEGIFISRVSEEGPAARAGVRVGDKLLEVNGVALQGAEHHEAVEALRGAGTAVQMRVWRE"}, "[7]": {"biological_target": "T2, DLG3_3, Q92796", "T2 sequence (Q92796 374-475, limits assumed, looked up)": "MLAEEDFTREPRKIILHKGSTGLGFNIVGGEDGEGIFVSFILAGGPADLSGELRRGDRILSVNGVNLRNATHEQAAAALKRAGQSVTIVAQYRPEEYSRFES"}, "[8]": {"biological_target": "FRMPD2_1, Q68DX3", "sequence (Q68DX3 770-861)": "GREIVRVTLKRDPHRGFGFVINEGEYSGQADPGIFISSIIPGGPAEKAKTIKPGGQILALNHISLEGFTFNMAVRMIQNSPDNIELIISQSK"}, "[9]": {"biological_target": "Inadl_2, Q8NI35", "sequence (Q8NI35 238-335)": "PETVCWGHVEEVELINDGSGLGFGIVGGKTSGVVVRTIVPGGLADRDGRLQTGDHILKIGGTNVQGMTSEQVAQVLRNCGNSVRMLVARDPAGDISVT"}, "[10]": {"biological_target": "T3, HTRA4, P83105", "T3 sequence (P83105 378-476, limits assumed, looked up)": "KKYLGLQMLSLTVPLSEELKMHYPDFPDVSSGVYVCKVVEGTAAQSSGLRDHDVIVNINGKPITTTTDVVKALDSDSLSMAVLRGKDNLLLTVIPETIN"}, "[11]": {"biological_target": "MAST2, Q6P0Q8", "sequence (Q6P0Q8 1099-1202)": "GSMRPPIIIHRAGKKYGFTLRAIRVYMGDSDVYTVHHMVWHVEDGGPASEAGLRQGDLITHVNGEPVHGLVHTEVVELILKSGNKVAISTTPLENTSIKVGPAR"}, "[12]": {"biological_target": "DLG4_2, P78352", "sequence (P78352 155-259)": "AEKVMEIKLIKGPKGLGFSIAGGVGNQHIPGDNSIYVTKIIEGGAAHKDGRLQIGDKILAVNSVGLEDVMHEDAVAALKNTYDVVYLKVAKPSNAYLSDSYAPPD"}, "[13]": {"biological_target": "SCRIB_2, Q14160", "sequence (Q14160 857-960)": "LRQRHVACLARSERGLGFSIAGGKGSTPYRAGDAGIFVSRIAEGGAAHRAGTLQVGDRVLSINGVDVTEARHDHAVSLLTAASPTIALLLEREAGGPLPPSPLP"}, "[14]": {"biological_target": "LNX1_3, Q8TBB1", "sequence (Q8TBB1 500-596)": "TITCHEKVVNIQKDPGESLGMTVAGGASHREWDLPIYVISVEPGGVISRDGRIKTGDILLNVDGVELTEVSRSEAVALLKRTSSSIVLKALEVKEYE"}, "[15]": {"biological_target": "SNX27, Q96L92"}, "[16]": {"biological_target": "T4, APBA2_1, Q99767", "T4 sequence (Q99767 563-664, limits assumed, looked up)": "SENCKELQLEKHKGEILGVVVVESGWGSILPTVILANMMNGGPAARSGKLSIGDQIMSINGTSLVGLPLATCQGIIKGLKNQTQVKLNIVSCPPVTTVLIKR"}, "[17]": {"biological_target": "T5, DFNB31_3, Q9P202", "T5 sequence (Q9P202 811-907, limits assumed, looked up)": "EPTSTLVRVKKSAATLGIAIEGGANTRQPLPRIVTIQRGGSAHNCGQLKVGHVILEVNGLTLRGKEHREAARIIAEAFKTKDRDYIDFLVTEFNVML"}, "[18]": {"biological_target": "GRIP2_3, Q9C0E4", "sequence (Q9C0E4 238-339)": "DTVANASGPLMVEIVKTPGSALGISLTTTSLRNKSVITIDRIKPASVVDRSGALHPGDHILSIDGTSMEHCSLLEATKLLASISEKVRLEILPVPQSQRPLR"}, "[19]": {"biological_target": "DLG1_3, Q12959", "sequence (Q12959 457-571)": "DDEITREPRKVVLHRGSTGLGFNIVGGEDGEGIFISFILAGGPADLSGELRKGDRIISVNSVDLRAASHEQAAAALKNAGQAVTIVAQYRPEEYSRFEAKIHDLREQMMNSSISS"}, "[20]": {"biological_target": "LNX1_1, Q8TBB1", "sequence (Q8TBB1 261-371)": "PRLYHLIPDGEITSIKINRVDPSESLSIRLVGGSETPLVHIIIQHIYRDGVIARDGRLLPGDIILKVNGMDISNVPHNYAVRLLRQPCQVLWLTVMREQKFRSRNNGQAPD"}, "[21]": {"biological_target": "LIMK2, P53671", "sequence (P53671 143-248)": "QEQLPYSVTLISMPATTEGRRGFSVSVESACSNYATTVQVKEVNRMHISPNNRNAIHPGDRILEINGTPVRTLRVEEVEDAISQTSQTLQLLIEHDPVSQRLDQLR"}, "[22]": {"biological_target": "DLG4_3, P78352", "sequence (P78352 306-403)": "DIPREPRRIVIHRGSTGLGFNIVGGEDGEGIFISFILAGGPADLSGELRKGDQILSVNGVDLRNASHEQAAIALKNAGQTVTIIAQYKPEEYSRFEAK"}, "[23]": {"biological_target": "GOPC, Q9HD26"}, "[24]": {"biological_target": "NHERF4_4, Q86UT5", "sequence (Q86UT5 464-550)": "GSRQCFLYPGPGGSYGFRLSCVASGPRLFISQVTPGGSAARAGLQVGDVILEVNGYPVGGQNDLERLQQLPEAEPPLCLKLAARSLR"}, "[25]": {"biological_target": "NHERF4_1, Q86UT5-2", "sequence (Q86UT5 other isoform, or with tags, fused parts or gaps)": "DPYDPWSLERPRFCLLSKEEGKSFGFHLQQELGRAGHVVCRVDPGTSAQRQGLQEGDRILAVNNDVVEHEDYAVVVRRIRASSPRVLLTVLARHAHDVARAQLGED"}, "[26]": {"biological_target": "FRMPD4, Q14CM0", "sequence (Q14CM0 67-160)": "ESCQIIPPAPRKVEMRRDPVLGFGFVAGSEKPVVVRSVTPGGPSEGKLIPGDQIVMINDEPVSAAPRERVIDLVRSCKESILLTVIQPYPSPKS"}, "[27]": {"biological_target": "T6, GRIP1_7, Q9Y3R0", "T6 sequence (Q9Y3R0 999-1096, limits assumed, looked up)": "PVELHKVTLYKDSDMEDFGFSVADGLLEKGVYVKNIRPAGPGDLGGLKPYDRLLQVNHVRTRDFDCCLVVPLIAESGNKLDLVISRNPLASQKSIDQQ"}, "[28]": {"biological_target": "T7, PDZD2_2, O15018", "T7 sequence (O15018 329-429, limits assumed, looked up)": "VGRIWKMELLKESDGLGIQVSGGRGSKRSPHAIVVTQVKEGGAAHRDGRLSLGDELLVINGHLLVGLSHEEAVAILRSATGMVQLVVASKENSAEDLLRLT"}, "[29]": {"biological_target": "DLG4_1, P78352", "sequence (P78352 62-152)": "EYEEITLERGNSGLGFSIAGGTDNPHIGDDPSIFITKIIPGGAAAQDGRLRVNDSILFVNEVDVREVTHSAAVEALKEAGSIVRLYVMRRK"}, "[30]": {"biological_target": "T8, NHERF3_1, Q5T2W1", "T8 sequence (Q5T2W1 4-100, limits assumed, looked up)": "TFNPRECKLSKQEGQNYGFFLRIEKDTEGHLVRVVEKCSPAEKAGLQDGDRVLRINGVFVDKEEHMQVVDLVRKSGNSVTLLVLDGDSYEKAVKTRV"}, "[31]": {"biological_target": "MAGI2_5, Q86UL8", "sequence (Q86UL8 915-1017)": "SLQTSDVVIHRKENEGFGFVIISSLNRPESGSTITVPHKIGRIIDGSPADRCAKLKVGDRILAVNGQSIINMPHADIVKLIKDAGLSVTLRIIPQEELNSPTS"}, "[32]": {"conditions": "plain residues with an end cap or a label only (N-terminal biotin on a linker: ttds)"}, "[33]": {"conditions": "plain residues with an end cap or a label only (N-terminal biotin on a linker: ado-ado)"}},
  "data": [
    {"binder": "MERLRVETDV", "note": "[ARHGEF16, Q5VV41]", "values": [
      {"measurement": "pKd", "setting": "[1]; [32]", "result": 4.25},
      {"measurement": "pKd", "setting": "[2]; [32]", "result": 3.53},
      {"measurement": "pKd", "setting": "[3]; [32]", "result": "below the threshold"},
      {"measurement": "pKd", "setting": "[4]; [32]", "result": 5.21},
      {"measurement": "pKd", "setting": "[5]; [32]", "result": 3.53},
      {"measurement": "pKd", "setting": "[6]; [32]", "result": 4.58},
      {"measurement": "pKd", "setting": "[7]; [32]", "result": 3.88},
      {"measurement": "pKd", "setting": "[8]; [32]", "result": 3.79},
      {"measurement": "pKd", "setting": "[9]; [32]", "result": "below the threshold"},
      {"measurement": "pKd", "setting": "[10]; [32]", "result": 3.74},
      {"measurement": "pKd", "setting": "[11]; [32]", "result": 5.56},
      {"measurement": "pKd", "setting": "[12]; [32]", "result": 5.44},
      {"measurement": "pKd", "setting": "[13]; [32]", "result": 5.01},
      {"measurement": "pKd", "setting": "[14]; [32]", "result": "below the threshold"},
      {"measurement": "pKd", "setting": "[15]; [32]", "result": 4.17},
      {"measurement": "pKd", "setting": "[16]; [32]", "result": "below the threshold"},
      {"measurement": "pKd", "setting": "[17]; [32]", "result": "below the threshold"},
      {"measurement": "pKd", "setting": "[18]; [32]", "result": "below the threshold"},
      {"measurement": "pKd", "setting": "[19]; [32]", "result": 3.86},
      {"measurement": "pKd", "setting": "[20]; [32]", "result": 4.03},
      {"measurement": "pKd", "setting": "[21]; [32]", "result": "below the threshold"},
      {"measurement": "pKd", "setting": "[22]; [32]", "result": "below the threshold"},
      {"measurement": "pKd", "setting": "[23]; [32]", "result": 3.84},
      {"measurement": "pKd", "setting": "[24]; [32]", "result": "below the threshold"},
      {"measurement": "pKd", "setting": "[25]; [32]", "result": "below the threshold"},
      {"measurement": "pKd", "setting": "[26]; [32]", "result": "below the threshold"},
      {"measurement": "pKd", "setting": "[27]; [32]", "result": "below the threshold"},
      {"measurement": "pKd", "setting": "[28]; [32]", "result": 4.33},
      {"measurement": "pKd", "setting": "[29]; [32]", "result": 5.13},
      {"measurement": "pKd", "setting": "[30]; [32]", "result": "below the threshold"},
      {"measurement": "pKd", "setting": "[31]; [32]", "result": "below the threshold"}
    ]},
    {"binder": "SVVSERISSV", "note": "[HTR2C, P28335]", "values": [
      {"measurement": "pKd", "setting": "[1]; [33]", "result": 3.89},
      {"measurement": "pKd", "setting": "[2]; [33]", "result": 4.3},
      {"measurement": "pKd", "setting": "[3]; [33]", "result": "below the threshold"},
      {"measurement": "pKd", "setting": "[4]; [33]", "result": 4.4},
      {"measurement": "pKd", "setting": "[5]; [33]", "result": 5.14},
      {"measurement": "pKd", "setting": "[6]; [33]", "result": "below the threshold"},
      {"measurement": "pKd", "setting": "[7]; [33]", "result": "below the threshold"},
      {"measurement": "pKd", "setting": "[8]; [33]", "result": "below the threshold"},
      {"measurement": "pKd", "setting": "[9]; [33]", "result": "below the threshold"},
      {"measurement": "pKd", "setting": "[10]; [33]", "result": "below the threshold"},
      {"measurement": "pKd", "setting": "[11]; [33]", "result": 4.78},
      {"measurement": "pKd", "setting": "[12]; [33]", "result": 4.64},
      {"measurement": "pKd", "setting": "[13]; [33]", "result": "below the threshold"},
      {"measurement": "pKd", "setting": "[14]; [33]", "result": "below the threshold"},
      {"measurement": "pKd", "setting": "[15]; [33]", "result": 5.06},
      {"measurement": "pKd", "setting": "[16]; [33]", "result": "below the threshold"},
      {"measurement": "pKd", "setting": "[17]; [33]", "result": 3.76},
      {"measurement": "pKd", "setting": "[18]; [33]", "result": "below the threshold"},
      {"measurement": "pKd", "setting": "[19]; [33]", "result": "below the threshold"},
      {"measurement": "pKd", "setting": "[20]; [33]", "result": "below the threshold"},
      {"measurement": "pKd", "setting": "[21]; [33]", "result": "below the threshold"},
      {"measurement": "pKd", "setting": "[22]; [33]", "result": "below the threshold"},
      {"measurement": "pKd", "setting": "[23]; [33]", "result": "below the threshold"},
      {"measurement": "pKd", "setting": "[24]; [33]", "result": "below the threshold"},
      {"measurement": "pKd", "setting": "[25]; [33]", "result": 3.72},
      {"measurement": "pKd", "setting": "[26]; [33]", "result": "below the threshold"},
      {"measurement": "pKd", "setting": "[27]; [33]", "result": "below the threshold"},
      {"measurement": "pKd", "setting": "[28]; [33]", "result": 5.56},
      {"measurement": "pKd", "setting": "[29]; [33]", "result": 3.94},
      {"measurement": "pKd", "setting": "[30]; [33]", "result": "below the threshold"},
      {"measurement": "pKd", "setting": "[31]; [33]", "result": 4.01}
    ]}
  ]
}
